The subject of series [1] is Xis-Arg39Lys (phage lambda). The series can be described thus: EMSA. Particulars: no Fis; stepwise, non-cooperative; EMSA: 20 mM HEPES pH 7.5, 0.1 M NaCl, 5% glycerol, 500 ug/ml BSA, 1 mM EDTA, 1 mM DTT, 25 C; competitor 50 ug/ml poly dI/dC (34 bp), 5 ug/ml poly dI/dC (Fig 2) ….
In series [2] the test system is Xis-Arg39Ala (phage lambda). The series can be described thus: EMSA. Particulars: no Fis; cooperative; EMSA: 20 mM HEPES pH 7.5, 0.1 M NaCl, 5% glycerol, 500 ug/ml BSA, 1 mM EDTA, 1 mM DTT, 25 C; competitor 50 ug/ml poly dI/dC (34 bp), 5 ug/ml poly dI/dC (Fig 2) …. For orientation: A gel shift assay detects complexes by their altered migration in electrophoresis.
For series [3], the target named is Fis;Xis-wt (phage lambda) (UniProt P0A6R3). The series can be described thus: EMSA. As to conditions: apparent Kd of Xis for Fis-bound DNA; 4 nM Fis; EMSA: 20 mM HEPES pH 7.5, 0.1 M NaCl, 5% glycerol, 500 ug/ml BSA, 1 mM EDTA, 1 mM DTT, 25 C; competitor 50 ug/ml poly dI/dC (34 bp), 5 ug/ml poly dI/dC (Fig 2) ….
The target in series [4] is T1, Fis;Xis1-55 (Escherichia coli?;phage lambda, UniProt P0A6R3;P03699 1-98;1-55, |C28S). The series can be described thus: X-ray crystallography; FX2, 2.7 A; EMSA: 20 mM HEPES pH 7.5, 0.1 M NaCl, 5% glycerol, 500 ug/ml BSA, 1 mM EDTA, 1 mM DTT, 25 C; competitor 50 ug/ml poly dI/dC (34 bp), 5 ug/ml poly dI/dC (Fig 2). Particulars: protein: recombinant;recombinant; tags: ;; chain copies: 2;1.

Series [5] concerns the molecule itself. The series can be described thus: crystal structure; Fis dimer and Xis^1-55 co-bound to 27 bp DNA duplexes (FX2, FX1-2-1Xis, FX1-2-2Xis); complexes formed in 20 mM Tris-HCl pH 7.5, 200 mM Na acetate; crystals grown at 4°C in 0.1 M HEPES pH 7-7.5, 15% PEG4000.
Series [6] has as its target T1, Fis;Xis1-55. The series can be described thus: X-ray crystallography (Br anomalous); EMSA: 20 mM HEPES pH 7.5, 0.1 M NaCl, 5% glycerol, 500 ug/ml BSA, 1 mM EDTA, 1 mM DTT, 25 C; competitor 50 ug/ml poly dI/dC (34 bp), 5 ug/ml poly dI/dC (Fig 2). Particulars: protein: recombinant;recombinant; tags: ;; chain copies: 2;1.
The target of series [7] is T1, Fis;Xis1-55. The series can be described thus: X-ray crystallography; FX1-2-1Xis, 3.60 A; Xis at X2; EMSA: 20 mM HEPES pH 7.5, 0.1 M NaCl, 5% glycerol, 500 ug/ml BSA, 1 mM EDTA, 1 mM DTT, 25 C; competitor 50 ug/ml poly dI/dC (34 bp), 5 ug/ml poly dI/dC (Fig 2). Particulars: protein: recombinant;recombinant; tags: ;; chain copies: 2;1.
For series [8], the target named is Fis;Xis1-55 (two protomers) (Escherichia coli?;phage lambda, UniProt P0A6R3;P03699 1-98;1-55, |C28S). The series can be described thus: X-ray crystallography; FX1-2-2Xis, 3.30 A; second Xis over X1 in reverse orientation; EMSA: 20 mM HEPES pH 7.5, 0.1 M NaCl, 5% glycerol, 500 ug/ml BSA, 1 mM EDTA, 1 mM DTT, 25 C; competitor 50 ug/ml poly dI/dC (34 bp), 5 ug/ml poly dI/dC (Fig 2). Particulars: protein: recombinant;recombinant; tags: ;; chain copies: 2;2.

What is called stoichiometry N is the number of molecules, sites or subunits per partner or assembly.

On to attR 263 bp, for which the figures for the binding signal (fold lower affinity than Xis-wt) in series [1] and in series [2] were 10 and 15, respectively. F-X2 34 bp (CA, native): in series [3], the Kd turned out to be 400 nM.

B1: FX2 27 bp (dsDNA)
DNA 1: AATTTTGCATAAAAAACAGACTACATT
DNA 2: AATGTAGTCTGTTTTTTATGCAAAATT
In the case of B1, the binding result with Fis;Xis1-55 [4] is on record as “binds”.

B2: Xis^1-55 (phage lambda Xis residues 1-55 with a cysteine to serine substitution at residue 28) (domain or fragment, UniProt P03699 1-55, looked up)
chain: MYLTLQEWNARQRRPRSLETVRRWVRESRIFPPPVKDGREYLFHESAVKVDLNRP
notes: Used for crystallography; The full-length Cys28Ser xis gene (pRJ2178, pET11a) was used for the gel shift assays on DNA, which are not written here; also called Xis protomer; Xis monomer
Consider B2, for which, in series [5], the binding result is on record as “binds”.

B3: FX1-2 27 bp 5-BrdU (dsDNA)
DNA 1: AATGTTGTGTTTTTAACAGACTACATT
DNA 2: AATGTAGTCTGTTAAAAACACAACATT
modifications: 5-bromodeoxyuridine at asterisked T positions (incl. nt 8 and 12 from the central T)
Turning to B3, the binding result with Fis;Xis1-55 [6] is “binds”.

B4: FX1-2 27 bp (dsDNA)
DNA 1: AATGTTGTGTTTTTAACAGACTACATT
DNA 2: AATGTAGTCTGTTAAAAACACAACATT
B4: the binding result (with Fis;Xis1-55 [7]; in series [8]) was “binds” each time.

B5: Escherichia coli Fis protein (natural protein)
chain: MFEQRVNSDVLTVSTVNSQDQVTQKPLRDSVKQALKNYFAQLNGQDVNDLYELVLAEVEQPLLDMVMQYTRGNQTRAALMMGINRGTLRKKLKKYGMN
notes: Fis, bacterial nucleoid / DNA architectural protein of Escherichia coli; the N-terminal beta-hairpin arms are not resolved in the crystals; also called Fis dimer
B5: in series [5], the “stoichiometry N” value came to 2.

The values are drawn from PMC7145599, “Cooperative DNA binding by proteins through DNA shape complementarity” (Nucleic Acids Research, 2019).
